Laboratory results reported in ChEMBL document CHEMBL2203217, “Prohormone-substrate peptide sequence recognition by peptidylglycine α-amidating monooxygenase and its reflection in increased glycolate inhibitor potency” (Bioorg Med Chem Lett, 2012).

Assays:
[1] = substrate: CC(=O)N1CCC[C@H]1C(=O)N[C@@H](CC(C)C)C(=O)NCC(=O)NCC(=O)O; assay: (§1) Binding affinity to secreted PAM in human DMS53 cell culture medium after 2 hrs by HPLC analysis; conditions: DMS-53
[2] = substrate: O=C(O)CNC(=O)[C@@H]1CCCN1; assay: as §1; conditions: DMS-53
[3] = substrate: C[C@H](N)C(=O)N1CCC[C@H]1C(=O)NCC(=O)O; assay: as §1; conditions: DMS-53
[4] = substrate: CC(C)[C@H](N)C(=O)NCC(=O)N[C@@H](C)C(=O)N1CCC[C@H]1C(=O)NCC(=O)O; assay: as §1; conditions: DMS-53
[5] = substrate: CC[C@H](C)[C@@H]1NC(=O)[C@H](Cc2ccc(O)cc2)NC(=O)[C@@H](N)CSSC[C@@H](C(=O)N2CCC[C@H]2C(=O)N[C@@H](CC(C)C)C(=O)NCC(=O)NCC(=O)O)NC(=O)[C@H](CC(N)=O)NC(=O)[C@H](CCC(N)=O)NC1=O; assay: as §1; conditions: DMS-53
[6] = substrate: CC[C@H](C)[C@H](NC(=O)[C@H](C)NC(=O)[C@@H](NC(=O)[C@H](CCC(N)=O)NC(=O)[C@@H]1CCCN1C(=O)[C@H](Cc1ccccc1)NC(=O)[C@@H](NC(=O)[C@H](Cc1cnc[nH]1)NC(=O)[C@H](Cc1ccccc1)NC(=O)[C@H](CCCCN)NC(=O)[C@H](CC(N)=O)NC(=O)[C@H](Cc1ccccc1)NC(=O)[C@H](CC(=O)O)NC(=O)[C@H](CCC(N)=O)NC(=O)[C@@H](NC(=O)[C@H](Cc1ccc(O)cc1)NC(=O)[C@@H](NC(=O)CNC(=O)[C@H](CC(C)C)NC(=O)[C@H](CCSC)NC(=O)[C@@H]1CSSC[C@H](N)C(=O)NCC(=O)N[C@@H](CC(N)=O)C(=O)N[C@@H](CC(C)C)C(=O)N[C@@H](CO)C(=O)N[C@@H]([C@@H](C)O)C(=O)N1)[C@@H](C)O)[C@@H](C)O)[C@@H](C)O)[C@@H](C)O)C(=O)NCC(=O)N[C@H](C(=O)NCC(=O)N[C@@H](C)C(=O)N1CCC[C@H]1C(=O)NCC(=O)O)C(C)C; assay: as §1; conditions: DMS-53
[7] = substrate: CC(=O)NCC(=O)NCC(=O)O; assay: as §1; conditions: DMS-53
[8] = substrate: CC(C)[C@H](N)C(=O)NCC(=O)N[C@@H](C)C(=O)N[C@@H](Cc1ccccc1)C(=O)NCC(=O)O; assay: as §1; conditions: DMS-53
[9] = substrate: CC[C@H](C)[C@H](NC(=O)[C@H](C)NC(=O)[C@@H](NC(=O)[C@H](CCC(N)=O)NC(=O)[C@@H]1CCCN1C(=O)[C@H](Cc1ccccc1)NC(=O)[C@@H](NC(=O)[C@H](Cc1cnc[nH]1)NC(=O)[C@H](Cc1ccccc1)NC(=O)[C@H](CCCCN)NC(=O)[C@H](CC(N)=O)NC(=O)[C@H](Cc1ccccc1)NC(=O)[C@H](CC(=O)O)NC(=O)[C@H](CCC(N)=O)NC(=O)[C@@H](NC(=O)[C@H](Cc1ccc(O)cc1)NC(=O)[C@@H](NC(=O)CNC(=O)[C@H](CC(C)C)NC(=O)[C@H](CCSC)NC(=O)[C@@H]1CSSC[C@H](N)C(=O)NCC(=O)N[C@@H](CC(N)=O)C(=O)N[C@@H](CC(C)C)C(=O)N[C@@H](CO)C(=O)N[C@@H]([C@@H](C)O)C(=O)N1)[C@@H](C)O)[C@@H](C)O)[C@@H](C)O)[C@@H](C)O)C(=O)NCC(=O)N[C@H](C(=O)NCC(=O)N[C@@H](C)C(=O)N[C@@H](Cc1ccccc1)C(=O)NCC(=O)O)C(C)C; assay: as §1; conditions: DMS-53
[10] = substrate: CC(=O)N[C@@H](CC(C)C)C(=O)N[C@@H](Cc1ccccc1)C(=O)NCC(=O)O; assay: as §1; conditions: DMS-53
[11] = substrate: C[C@H](N)C(=O)N[C@@H](Cc1ccccc1)C(=O)NCC(=O)O; assay: as §1; conditions: DMS-53
[12] = substrate: C[C@H](NC(=O)CN)C(=O)N[C@@H](Cc1ccccc1)C(=O)NCC(=O)O; assay: as §1; conditions: DMS-53
[13] = substrate: C[C@H](NC(=O)CN)C(=O)N1CCC[C@H]1C(=O)NCC(=O)O; assay: as §1; conditions: DMS-53
[14] = substrate: CC(=O)N1CCC[C@H]1C(=O)N[C@@H](CC(C)C)C(=O)N[C@@H](Cc1ccccc1)C(=O)NCC(=O)O; assay: as §1; conditions: DMS-53
[15] = substrate: N[C@@H](Cc1ccccc1)C(=O)NCC(=O)O; assay: as §1; conditions: DMS-53
[16] = substrate: CC[C@H](C)[C@@H]1NC(=O)[C@H](Cc2ccc(O)cc2)NC(=O)[C@@H](N)CSSC[C@@H](C(=O)N2CCC[C@H]2C(=O)N[C@@H](CC(C)C)C(=O)N[C@@H](Cc2ccccc2)C(=O)NCC(=O)O)NC(=O)[C@H](CC(N)=O)NC(=O)[C@H](CCC(N)=O)NC1=O; assay: as §1; conditions: DMS-53
[17] = substrate: CC(=O)N[C@@H](Cc1ccccc1)C(=O)NCC(=O)O; assay: as §1; conditions: DMS-53
[18] = substrate: CC(=O)N[C@@H](CC(C)C)C(=O)NCC(=O)NCC(=O)O; assay: as §1; conditions: DMS-53
[19] = substrate: CC(=O)NCC(=O)O; assay: as §1; conditions: DMS-53
[20] = substrate: CC(=O)N1CCC[C@H]1C(=O)N[C@@H](CC(C)C)C(=O)NCC(=O)NCC(=O)O; assay: (§2) Binding affinity to PAM in human DMS53 cells after 2 hrs by HPLC analysis; format: cell-based
[21] = substrate: O=C(O)CNC(=O)[C@@H]1CCCN1; assay: as §2; format: cell-based
[22] = substrate: C[C@H](N)C(=O)N1CCC[C@H]1C(=O)NCC(=O)O; assay: as §2; format: cell-based
[23] = substrate: CC(C)[C@H](N)C(=O)NCC(=O)N[C@@H](C)C(=O)N1CCC[C@H]1C(=O)NCC(=O)O; assay: as §2; format: cell-based
[24] = substrate: CC[C@H](C)[C@@H]1NC(=O)[C@H](Cc2ccc(O)cc2)NC(=O)[C@@H](N)CSSC[C@@H](C(=O)N2CCC[C@H]2C(=O)N[C@@H](CC(C)C)C(=O)NCC(=O)NCC(=O)O)NC(=O)[C@H](CC(N)=O)NC(=O)[C@H](CCC(N)=O)NC1=O; assay: as §2; format: cell-based
[25] = substrate: CC[C@H](C)[C@H](NC(=O)[C@H](C)NC(=O)[C@@H](NC(=O)[C@H](CCC(N)=O)NC(=O)[C@@H]1CCCN1C(=O)[C@H](Cc1ccccc1)NC(=O)[C@@H](NC(=O)[C@H](Cc1cnc[nH]1)NC(=O)[C@H](Cc1ccccc1)NC(=O)[C@H](CCCCN)NC(=O)[C@H](CC(N)=O)NC(=O)[C@H](Cc1ccccc1)NC(=O)[C@H](CC(=O)O)NC(=O)[C@H](CCC(N)=O)NC(=O)[C@@H](NC(=O)[C@H](Cc1ccc(O)cc1)NC(=O)[C@@H](NC(=O)CNC(=O)[C@H](CC(C)C)NC(=O)[C@H](CCSC)NC(=O)[C@@H]1CSSC[C@H](N)C(=O)NCC(=O)N[C@@H](CC(N)=O)C(=O)N[C@@H](CC(C)C)C(=O)N[C@@H](CO)C(=O)N[C@@H]([C@@H](C)O)C(=O)N1)[C@@H](C)O)[C@@H](C)O)[C@@H](C)O)[C@@H](C)O)C(=O)NCC(=O)N[C@H](C(=O)NCC(=O)N[C@@H](C)C(=O)N1CCC[C@H]1C(=O)NCC(=O)O)C(C)C; assay: as §2; format: cell-based
[26] = substrate: CC(=O)NCC(=O)NCC(=O)O; assay: as §2; format: cell-based
[27] = substrate: CC(C)[C@H](N)C(=O)NCC(=O)N[C@@H](C)C(=O)N[C@@H](Cc1ccccc1)C(=O)NCC(=O)O; assay: as §2; format: cell-based
[28] = substrate: CC[C@H](C)[C@H](NC(=O)[C@H](C)NC(=O)[C@@H](NC(=O)[C@H](CCC(N)=O)NC(=O)[C@@H]1CCCN1C(=O)[C@H](Cc1ccccc1)NC(=O)[C@@H](NC(=O)[C@H](Cc1cnc[nH]1)NC(=O)[C@H](Cc1ccccc1)NC(=O)[C@H](CCCCN)NC(=O)[C@H](CC(N)=O)NC(=O)[C@H](Cc1ccccc1)NC(=O)[C@H](CC(=O)O)NC(=O)[C@H](CCC(N)=O)NC(=O)[C@@H](NC(=O)[C@H](Cc1ccc(O)cc1)NC(=O)[C@@H](NC(=O)CNC(=O)[C@H](CC(C)C)NC(=O)[C@H](CCSC)NC(=O)[C@@H]1CSSC[C@H](N)C(=O)NCC(=O)N[C@@H](CC(N)=O)C(=O)N[C@@H](CC(C)C)C(=O)N[C@@H](CO)C(=O)N[C@@H]([C@@H](C)O)C(=O)N1)[C@@H](C)O)[C@@H](C)O)[C@@H](C)O)[C@@H](C)O)C(=O)NCC(=O)N[C@H](C(=O)NCC(=O)N[C@@H](C)C(=O)N[C@@H](Cc1ccccc1)C(=O)NCC(=O)O)C(C)C; assay: as §2; format: cell-based
[29] = substrate: CC(=O)N[C@@H](CC(C)C)C(=O)N[C@@H](Cc1ccccc1)C(=O)NCC(=O)O; assay: as §2; format: cell-based
[30] = substrate: C[C@H](N)C(=O)N[C@@H](Cc1ccccc1)C(=O)NCC(=O)O; assay: as §2; format: cell-based
[31] = substrate: C[C@H](NC(=O)CN)C(=O)N[C@@H](Cc1ccccc1)C(=O)NCC(=O)O; assay: as §2; format: cell-based
[32] = substrate: C[C@H](NC(=O)CN)C(=O)N1CCC[C@H]1C(=O)NCC(=O)O; assay: as §2; format: cell-based
[33] = substrate: CC(=O)N1CCC[C@H]1C(=O)N[C@@H](CC(C)C)C(=O)N[C@@H](Cc1ccccc1)C(=O)NCC(=O)O; assay: as §2; format: cell-based
[34] = substrate: N[C@@H](Cc1ccccc1)C(=O)NCC(=O)O; assay: as §2; format: cell-based
[35] = substrate: CC[C@H](C)[C@@H]1NC(=O)[C@H](Cc2ccc(O)cc2)NC(=O)[C@@H](N)CSSC[C@@H](C(=O)N2CCC[C@H]2C(=O)N[C@@H](CC(C)C)C(=O)N[C@@H](Cc2ccccc2)C(=O)NCC(=O)O)NC(=O)[C@H](CC(N)=O)NC(=O)[C@H](CCC(N)=O)NC1=O; assay: as §2; format: cell-based
[36] = substrate: CC(=O)N[C@@H](Cc1ccccc1)C(=O)NCC(=O)O; assay: as §2; format: cell-based
[37] = substrate: CC(=O)N[C@@H](CC(C)C)C(=O)NCC(=O)NCC(=O)O; assay: as §2; format: cell-based
[38] = substrate: CC(=O)NCC(=O)O; assay: as §2; format: cell-based

B1: Peptidyl-glycine alpha-amidating monooxygenase (Homo sapiens), P19021 (protein)
chain: MAGRVPSLLVLLVFPSSCLAFRSPLSVFKRFKETTRPFSNECLGTTRPVVPIDSSDFALDIRMPGVTPKQSDTYFCMSMRIPVDEEAFVIDFKPRASMDTVHHMLLFGCNMPSSTGSYWFCDEGTCTDKANILYAWARNAPPTRLPKGVGFRVGGETGSKYFVLQVHYGDISAFRDNNKDCSGVSLHLTRLPQPLIAGMYLMMSVDTVIPAGEKVVNSDISCHYKNYPMHVFAYRVHTHHLGKVVSGYRVRNGQWTLIGRQSPQLPQAFYPVGHPVDVSFGDLLAARCVFTGEGRTEATHIGGTSSDEMCNLYIMYYMEAKHAVSFMTCTQNVAPDMFRTIPPEANIPIPVKSDMVMMHEHHKETEYKDKIPLLQQPKREEEEVLDQGDFYSLLSKLLGEREDVVHVHKYNPTEKAESESDLVAEIANVVQKKDLGRSDAREGAEHERGNAILVRDRIHKFHRLVSTLRPPESRVFSLQQPPPGEGTWEPEHTGDFHMEEALDWPGVYLLPGQVSGVALDPKNNLVIFHRGDHVWDGNSFDSKFVYQQIGLGPIEEDTILVIDPNNAAVLQSSGKNLFYLPHGLSIDKDGNYWVTDVALHQVFKLDPNNKEGPVLILGRSMQPGSDQNHFCQPTDVAVDPGTGAIYVSDGYCNSRIVQFSPSGKFITQWGEESSGSSPLPGQFTVPHSLALVPLLGQLCVADRENGRIQCFKTDTKEFVREIKHSSFGRNVFAISYIPGLLFAVNGKPHFGDQEPVQGFVMNFSNGEIIDIFKPVRKHFDMPHDIVASEDGTVYIGDAHTNTVWKFTLTEKLEHRSVKKAGIEVQEIKEAEAVVETKMENKPTSSELQKMQEKQKLIKEPGSGVPVVLITTLLVIPVVVLLAIAIFIRWKKSRAFGDSEHKLETSSGRVLGRFRGKGSGGLNLGNFFASRKGYSRKGFDRLSTEGSDQEKEDDGSESEEEYSAPLPALAPSSS
Km [1]: 550 µM | Km [2]: 880 µM | Km [3]: 4000 µM | Km [4]: 960 µM | Km [5]: 190 µM | Km [6]: 200 µM | Km [7]: 1200 µM | Km [8]: 18 µM | Km [9]: 14 µM | Km [10]: 11 µM | Km [11]: 200 µM | Km [12]: 35 µM | Km [13]: 3000 µM | Km [14]: 7 µM | Km [15]: 6500 µM | Km [16]: 27 µM | Km [17]: 16 µM | Km [18]: 860 µM | Km [19]: 9900 µM | Km [20]: 660 µM | Km [21]: 980 µM | Km [22]: 5000 µM | Km [23]: 1000 µM | Km [24]: 36 µM | Km [25]: 200 µM | Km [26]: 1600 µM | Km [27]: 8 µM | Km [28]: 8 µM | Km [29]: 8 µM | Km [30]: 180 µM | Km [31]: 40 µM | Km [32]: 3000 µM | Km [33]: 6 µM | Km [34]: 6000 µM | Km [35]: 5 µM | Km [36]: 6 µM | Km [37]: 860 µM | Km [38]: 7500 µM
